In the test the target is T1, extracellular protease domain of wild-type ACE2 (human, UniProt Q9BYF1 19-615).
T1 construct: also called WT ACE2ecd; ACE2ecd
The test can be described thus: SPR. The settings on record: both partners purified.

T1 sequence (Q9BYF1 19-615): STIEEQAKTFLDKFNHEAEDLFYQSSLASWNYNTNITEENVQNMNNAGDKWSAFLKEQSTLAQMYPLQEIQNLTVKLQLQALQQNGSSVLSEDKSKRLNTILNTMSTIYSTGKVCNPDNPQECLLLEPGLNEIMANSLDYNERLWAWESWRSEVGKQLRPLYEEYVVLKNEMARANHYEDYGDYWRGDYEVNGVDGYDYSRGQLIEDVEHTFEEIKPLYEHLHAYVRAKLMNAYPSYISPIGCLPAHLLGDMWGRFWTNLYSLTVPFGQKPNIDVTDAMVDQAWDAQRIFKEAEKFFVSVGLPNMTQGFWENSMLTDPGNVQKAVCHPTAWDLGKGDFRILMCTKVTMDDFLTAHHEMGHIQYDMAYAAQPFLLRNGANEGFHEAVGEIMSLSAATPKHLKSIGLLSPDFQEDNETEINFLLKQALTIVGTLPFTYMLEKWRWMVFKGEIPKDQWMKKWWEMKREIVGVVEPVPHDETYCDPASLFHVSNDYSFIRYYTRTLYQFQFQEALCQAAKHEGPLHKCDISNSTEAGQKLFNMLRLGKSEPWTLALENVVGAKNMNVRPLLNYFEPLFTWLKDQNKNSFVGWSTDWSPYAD

B1: RBD of HCoV-NL63 (domain or fragment)
chain: QHTDINFTATASFGGSCYVCKPHQVNISLNGNTSVCVRTSHFSIRYIYNRVKSGSPGDSSWHIYLKSGTCPFSFSKLNNFQKFKTICFSTVEVPGSCNFPLEATWHYTSYTIVGALYVTWSEGNSITGVPYPVSGI
For the molecule B1, the binding result is listed as “binds”.

These data come from publication PMC10492923 (MedComm, 2023).
